From patent US20230250178A1 (published 2023)
Where two headings read alike, the source gives them in different places. One block for each binder: values may come before it.

How the values were obtained:
[1] = biological target: T1, human CCR8 (human, UniProt P51685 1-355); test: FACS screening, full length human IgG1
T1 construct: also called hCCR8; P51685_CCR8_HUMAN

[2] = biological target: T2, cynomolgus CCR8 (cynomolgus, UniProt O97665 1-356 (rhesus entry)); test: FACS screening, full length human IgG1
T2 construct: also called cynoCCR8; G7NYJ2_CCR8_MACFA
T2 sequence (O97665 other isoform, or with tags, fused parts or gaps): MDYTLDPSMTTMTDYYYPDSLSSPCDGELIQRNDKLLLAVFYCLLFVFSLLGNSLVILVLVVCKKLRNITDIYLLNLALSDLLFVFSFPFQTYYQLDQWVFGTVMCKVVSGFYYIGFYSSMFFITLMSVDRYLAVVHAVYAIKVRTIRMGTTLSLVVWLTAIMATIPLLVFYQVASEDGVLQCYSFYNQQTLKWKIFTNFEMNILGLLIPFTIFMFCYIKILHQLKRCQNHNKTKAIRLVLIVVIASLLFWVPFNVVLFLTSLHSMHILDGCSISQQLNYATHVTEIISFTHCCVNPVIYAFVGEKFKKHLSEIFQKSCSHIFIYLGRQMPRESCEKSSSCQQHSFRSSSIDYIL

[3] = biological target: T1, human CCR8; test: FACS, CHO-hCCR8
[4] = biological target: T2, cynomolgus CCR8; test: FACS, CHO-cynoCCR8
[5] = biological target: T3, human FcRn (human, UniProt P55899 24-297); test: SPR pH 6.0, FcRn immobilised
T3 construct: also called neonatal Fc receptor
T3 sequence (P55899 24-297 limits assumed, form in doubt): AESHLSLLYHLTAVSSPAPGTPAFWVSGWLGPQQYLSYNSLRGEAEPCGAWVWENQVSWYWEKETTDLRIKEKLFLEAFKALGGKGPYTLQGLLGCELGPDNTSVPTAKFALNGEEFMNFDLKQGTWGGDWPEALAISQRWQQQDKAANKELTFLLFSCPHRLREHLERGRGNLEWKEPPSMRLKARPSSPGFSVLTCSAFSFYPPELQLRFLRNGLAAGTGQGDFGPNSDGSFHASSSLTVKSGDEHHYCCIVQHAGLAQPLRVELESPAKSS

[6] = biological target: cynomolgus FcRn (cynomolgus, UniProt Q8SPV9 24-297, limits assumed); test: SPR pH 6.0, FcRn immobilised
Chain of cynomolgus FcRn (Q8SPV9 24-297 limits assumed, form in doubt): as the sequence (P55899 24-297 limits assumed, form in doubt) above, with N39D, E44Q, G99S, S189G, S190N, L217M, S269T counted along it

[7] = biological target: T4, mouse FcRn (mouse, UniProt Q61559 22-297, limits assumed); test: SPR pH 6.0, FcRn immobilised
T4 sequence (looked up): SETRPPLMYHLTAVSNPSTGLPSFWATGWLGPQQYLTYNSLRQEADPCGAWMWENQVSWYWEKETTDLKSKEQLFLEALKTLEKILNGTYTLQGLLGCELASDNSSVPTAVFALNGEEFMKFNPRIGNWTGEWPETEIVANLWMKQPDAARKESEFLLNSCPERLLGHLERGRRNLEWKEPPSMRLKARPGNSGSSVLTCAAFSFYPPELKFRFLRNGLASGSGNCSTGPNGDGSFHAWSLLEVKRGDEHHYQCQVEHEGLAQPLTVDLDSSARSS

[8] = biological target: T1, human CCR8; test: FACS, HuT78 (endogenous hCCR8)
[9] = biological target: T5, FcRn of the FcRn column (Roche, Order No. 8128057001); test: FcRn affinity chromatography, pH gradient
T5 construct: also called immobilized FcRn
Experimental: A FcRn column (Roche, Order No. 8128057001; prepacked with approximately 1 mL resin; binding capacity: ≥100 μg IgG) was equilibrated with running buffer A: 20 mM MES/HCl pH 5.5 140 mM NaCl. 30 μL of each antibody (1 mg/mL in equilibration buffer) was applied to the column.

[10] = biological target: T1, human CCR8; test: FACS, CHO-hCCR8; remark: listed apart in the source
[11] = biological target: T2, cynomolgus CCR8; test: FACS, CHO-cynoCCR8; remark: listed apart in the source
[12] = biological target: T6, Cyno_TRD_Ys peptide (# 2) (cynomolgus, Y(SO3) at printed positions 4, 16, 18 (Y3, Y15, Y17 of CCR8); C-terminal K(Biot)); test: SPR, peptide on SA chip
T6 construct: sulfated
T6 peptide: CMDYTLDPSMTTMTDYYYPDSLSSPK
Experimental: (§1) SPR binding assays were performed to systematically evaluate antibody binding to a) non-sulfated vs sulfated antigen, b) TRD vs N term and c) human vs cynomolgus CCR8. SPR binding assays were performed on a Biacore T200 instrument (Cytiva) at 25° C. with assay buffer 1× HBS-EP+(order no. BR100826, Cytiva). Peptides were used as ligands and were captured using their C-terminal biotin label on to a streptavidin coated sensor chip (“Sensor Chip SA”, Order No. BR100398, Cytiva). To this end, a terminal lysine (K) was added at the C-term of each peptide for biotinylation. For the N term of CCR8, the naturally occurring cysteine between TRD and LID domain was replaced by a serine. […] The concentration of analyte in assay buffer was 0.05-10 nM and the measurement was performed in multicycle kinetics mode. The sensor surface was regenerated with glycine pH 2.0 after each cycle. Obtained sensorgrams were double referenced (subtraction of reference flow cell signal and buffer injection) and were fitted to a 1:1 Langmuir binding model to derive kinetic data using the Biacore T200 Evaluation software.

[13] = biological target: T7, HUMAN_TRD_Ys peptide (# 4) (human, Y(SO3) at printed positions 4, 16, 18 (Y3, Y15, Y17 of CCR8); C-terminal K(Biot)); test: SPR, peptide on SA chip
T7 construct: sulfated
T7 peptide: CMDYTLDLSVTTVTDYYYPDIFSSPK
Experimental: as §1

[14] = biological target: T8, Cyno_NTerm_Ys peptide (# 6) (cynomolgus, Y(SO3) at printed positions 4, 16, 18 (Y3, Y15, Y17 of CCR8); C-terminal K(Biot)); test: SPR, peptide on SA chip
T8 construct: sulfated; natural cysteine between TRD and LID replaced by serine
T8 peptide: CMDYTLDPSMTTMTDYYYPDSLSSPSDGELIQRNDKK
Experimental: as §1

[15] = biological target: T9, HUMAN_NTerm_Ys peptide (# 8) (human, Y(SO3) at printed positions 4, 16, 18 (Y3, Y15, Y17 of CCR8); C-terminal K(Biot)); test: SPR, peptide on SA chip
T9 construct: sulfated; natural cysteine between TRD and LID replaced by serine
T9 peptide: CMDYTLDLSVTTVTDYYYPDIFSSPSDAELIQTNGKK
Experimental: as §1

[16] = biological target: T1, human CCR8; test: FACS
[17] = biological target: T2, cynomolgus CCR8; test: FACS
[18] = biological target: T10, murine CCR8 (mouse, UniProt P56484 1-353); test: FACS, CHO-mCCR8
T10 construct: also called mCCR8; P56484_CCR8_MOUSE
T10 sequence: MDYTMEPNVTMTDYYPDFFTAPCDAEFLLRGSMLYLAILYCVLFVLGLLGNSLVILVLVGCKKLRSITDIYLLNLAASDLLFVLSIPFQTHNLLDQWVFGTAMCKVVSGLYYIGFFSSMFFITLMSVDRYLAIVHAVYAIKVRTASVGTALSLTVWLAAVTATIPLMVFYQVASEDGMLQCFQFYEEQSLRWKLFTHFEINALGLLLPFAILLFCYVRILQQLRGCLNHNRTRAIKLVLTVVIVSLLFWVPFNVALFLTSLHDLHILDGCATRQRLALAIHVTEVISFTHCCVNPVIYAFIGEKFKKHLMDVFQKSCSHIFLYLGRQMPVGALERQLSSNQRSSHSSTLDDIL

[19] = biological target: T10, murine CCR8; test: cell-based or functional assay

binding result [1]: binds
binding result [2]: binds
B1: TPP-17576 (antibody, human IgG1, lambda, V domains shown)
VH: EVQLLESGGGLVQPGGSLRLSCAASGFTFSSYAMSWVRQAPGKGLEWVGRIRSKANSYATAYAASVKGRFTISRDNSKNTLYLQMNSLRAEDTAVYYCTRPLDSWGQGTLVTVSS
VL: QSVLTQPPSASGTPGQRVTISCSGSSSNIGNNAVNWYQQLPGTAPKLLIYRNNQRSSGVPDRFSGSKSGTSASLAISGLRSEDEADYYCQSYDNSLSASVFGGGTKLTVLG
notes: also called 497A-M136-021-1-hIgG1Lambda

binding result [1]: binds
binding result [2]: binds
B2: TPP-17579 (antibody, human IgG1, lambda, V domains shown)
VH: EVQLLESGGGLVQPGGSLRLSCAASGFTFVTYWMTWVRQAPGKGLEWVSGVSWNGSRTHYVDSVKRRFTISRDNSKNTLYLQMNSLRAEDTAVYYCARYSGYPDYYGMDVWGQGTLVTVSS
VL: QSVLTQPPSASGTPGQRVTISCSGSWSNIGNDNVYWYQQLPGTAPKLLIYRNNQRPSGVPDRFSGSKSGTSASLAISGLRSEDEADYYCQSYDRSLSGSVFGGGTKLTVLG
notes: also called 497A-M180-K04-1-hIgG1Lambda

EC50 [3]: 1.32 nM
EC50 [4]: 0.535 nM
Kd [5]: 29 nM
Kd [6]: 30 nM
Kd [7]: 33 nM
EC50 [8]: 3.25 nM
pH at Elution [9]: 7.88 pH
B3: TPP-27495 (antibody, human IgG1, lambda)
heavy: EVQLLESGGGLVQPGGSLRLSCAASGFTFSSYGMHWVRQAPGKGLEWVSAINWNGGSTGYADSVKGRFTISRDNSKNTLYLQMNSLRAEDTAVYYCARGHHSGYDGRFFDYWGQGTLVTVSSASTKGPSVFPLAPSSKSTSGGTAALGCLVKDYFPEPVTVSWNSGALTSGVHTFPAVLQSSGLYSLSSVVTVPSSSLGTQTYICNVNHKPSNTKVDKKVEPKSCDKTHTCPPCPAPELLGGPSVFLFPPKPKDTLYITREPEVTCVVVDVSHEDPEVKFNWYVDGVEVHNAKTKPREEQYNSTYRVVSVLTVLHQDWLNGKEYKCKVSNKALPAPIEKTISKAKGQPREPQVYTLPPSRDELTKNQVSLTCLVKGFYPSDIAVEWESNGQPENNYKTTPPVLDSDGSFFLYSKLTVDKSRWQQGNVFSCSVMHEALHNHYTQKSLSLSPGK
light: not shown
modifications: 70% afucosylated
notes: also called TPP-27495 (YTE); copies: 2 + 2

binding result [1]: binds
binding result [2]: binds
B4: TPP-17580 (antibody, human IgG1, lambda, V domains shown)
VH: EVQLLESGGGLVQPGGSLRLSCAASGFTFSSYGMHWVRQAPGKGLEWVSGVSWNGSRTRYADSVKGRFTISRDNSKNTLYLQMNSLRAEDTAVYYCTRGSYNSGWYAVSWGQGTLVTVSS
VL: QSVLTQPPSASGTPGQRVTISCSGSSSNIGSYPVNWYQQLPGTAPKLLIYRNNQRPSGVPDRFSGSKSGTSASLAISGLRSEDEADYYCSSYSVTDNLIFGGGTKLTVLG
notes: also called 497A-M193-A08-1-hIgG1Lambda

binding result [1]: binds
binding result [2]: binds
B5: TPP-17575 (antibody, human IgG1, lambda, V domains shown)
VH: EVQLLESGGGLVQPGGSLRLSCAASGFTFRSYAMHWVRQAPGKGLEWVSLISWDGGSTYYADSVKGRFTISRDNSKNTLYLQMNSLRAEDTAVYYCARGGIGRRPGLEYWGQGTLVTVSS
VL: QSVLTQPPSASGTPGQRVTISCSGSSSNIGNNYVSWYQQLPGTAPKLLIYGNSNRPSGVPDRFSGSKSGTSASLAISGLRSEDEADYYCQTWGTGIRVFGGGTKLTVLG
notes: also called 497A-M181-C17-1-hIgG1Lambda

EC50 [10]: 4.8 nM
EC50 [11]: 1.8 nM
Activity in % [12]: 52.9%
Kd [12]: ~1.39 nM
koff [12]: ~5.87 s⁻¹
kon [12]: ~4.23e+09 M⁻¹ s⁻¹
Activity in % [13]: 23.8%
Kd [13]: ~2.87 nM
koff [13]: ~16 s⁻¹
kon [13]: ~5.56e+09 M⁻¹ s⁻¹
Activity in % [14]: 78.5%
Kd [14]: ~0.868 nM
koff [14]: ~10.7 s⁻¹
Activity in % [15]: 17%
Kd [15]: ~2.88 nM
koff [15]: ~0.0222 s⁻¹
kon [15]: ~7.69e+06 M⁻¹ s⁻¹
B6: TPP-21181 (antibody, human IgG1, lambda, V domains shown)
VH: EVQLLESGGGLVQPGGSLRLSCAASGFTFSSYAMSWVRQAPGKGLEWVSGIRWNNGSKGYAGSVKGRFTISRDNSKNTLYLQMNSLRAEDTAVYYCARSGNYYYGYHGMDVWGQGTLVTVSS
VL: QSVLTQPPSASGTPGQRVTISCSGGNSNIGTYFVSWYQQLPGTAPKLLIYTNNQRPSGVPDRFSGSKSGTSASLAISGLRSEDEADYYCETWDSNTRVFGGGTKLTVLG
notes: also called 18205-gl46-hIgG1-wt-Lambda

binding result [16]: no binding
binding result [17]: no binding
EC50 [18]: 0.7 nM
IC50, Ca flux assay [19]: 1.65 nM
B7: TPP-14095 (antibody, human IgG1, lambda, V domains shown)
VH: EVQLLESGGGLVQPGGSLRLSCAASGFTFSSYGMHWVRQAPGKGLEWVSAISGSGGSTYYADSVKGRFTISRDNSKNTLYLQMNSLRAEDTAVYYCARGRQLGSWGQGTLVTVSS
VL: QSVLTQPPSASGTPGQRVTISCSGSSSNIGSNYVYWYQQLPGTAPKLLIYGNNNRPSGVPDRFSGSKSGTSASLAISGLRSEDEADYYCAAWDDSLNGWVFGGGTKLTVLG
notes: anti-murine CCR8, human IgG1 lambda; also called 497A-M005-E07-hIgG1Lambda

binding result [1]: binds
binding result [2]: binds
B8: TPP-17581 (antibody, human IgG1, lambda, V domains shown)
VH: EVQLLESGGGLVQPGGSLRLSCAASGFTFSNYRMTWVRQAPGKGLEWVSGINWNGGSTGYADSVKGRFTISRDNSKNTLYLQMNSLRAEDTAVYYCARGRFDTRGFYGFDYWGQGTLVTVSS
VL: QSVLTQPPSASGTPGQRVTISCTGSSSNIGAGYDVHWYQQLPGTAPKLLIYSHNQRPSGVPDRFSGSKSGTSASLAISGLRSEDEADYYCSAWDSSLSAWVFGGGTKLTVLG
notes: also called 497A-M177-L03-1-hIgG1Lambda

binding result [1]: binds
binding result [2]: binds
B9: TPP-18207 (antibody, human IgG1, lambda, V domains shown)
VH: EVQLLESGGGLVQPGGSLRLSCAASGFTFSNAWMSWVRQAPGKGLEWVSGINWNGGSTGYADSVKGRFTISRDNSKNTLYLQMNSLRAEDTAVYYCARTYTGNYGPYFDYWGQGTLVTVSS
VL: QSVLTQPPSASGTPGQRVTISCTGSSSNIGAGYDVHWYQQLPGTAPKLLIYKNNQRPSGVPDRFSGSKSGTSASLAISGLRSEDEADYYCAAWDDSLRGWVFGGGTKLTVLG
notes: also called 001-B08_497A-M301-B18 + 497A-M316-D16-hIgG1Lambda
